Molecular target: T1, VLA-4 (integrin alpha4 beta1) on the human B cell line Ramos (human, UniProt P13612 34-1032; P05556 21-798)
T1 construct: whole, on cells; also called α4β1; VLA-4-expressing cells
Assay: adhesion assay: inhibition of Ramos cell binding to immobilized rsVCAM1 (n = 6)
Protocol: Recombinant soluble VCAM1 was prepared and purified essentially as described by Lobb et al., 1991a. Soluble VCAM is diluted to 10 μg/ml in 0.05 M NaHCO₃, (15 mM NaHCO₃, 35 mM Na₂CO₃) pH 9.2. Then 50 μl/well is added into a Linbro Titertek polystyrene 96 well plate, flat bottom, Flow Labs catalog #76-231-05. The plate is incubated at 4° C. overnight.
For antibody blocking studies, 100 μl/well of murine HP1/2 MAb (anti-VLA-4) typically at 10 μg/ml in RPMI, 2% FBS are added to the rsVCAM1 coated plates and incubated for 30 minutes at room temperature prior to cell binding as described above. MAb HP1/2 (anti-VLA-4) or any recombinant humanized anti-VLA-4 antibody prepared as described herein must be preincubated with labelled cells for 30 minutes at room temperature prior to the cell binding. Concentrations of the antibodies preincubated will vary, but generally concentrations were in the range of about 1 μg/ml.
The potency of recombinant Stage 0, Stage 1, Stage 2 and Stage 3 antibodies having the VK1 (DQL) light chain that had been purified from stably transfected YB2/0 cell lines was measured in the adhesion assay, as shown in Table III.

T1 sequence (P13612 34-1032, chain 1 of 2): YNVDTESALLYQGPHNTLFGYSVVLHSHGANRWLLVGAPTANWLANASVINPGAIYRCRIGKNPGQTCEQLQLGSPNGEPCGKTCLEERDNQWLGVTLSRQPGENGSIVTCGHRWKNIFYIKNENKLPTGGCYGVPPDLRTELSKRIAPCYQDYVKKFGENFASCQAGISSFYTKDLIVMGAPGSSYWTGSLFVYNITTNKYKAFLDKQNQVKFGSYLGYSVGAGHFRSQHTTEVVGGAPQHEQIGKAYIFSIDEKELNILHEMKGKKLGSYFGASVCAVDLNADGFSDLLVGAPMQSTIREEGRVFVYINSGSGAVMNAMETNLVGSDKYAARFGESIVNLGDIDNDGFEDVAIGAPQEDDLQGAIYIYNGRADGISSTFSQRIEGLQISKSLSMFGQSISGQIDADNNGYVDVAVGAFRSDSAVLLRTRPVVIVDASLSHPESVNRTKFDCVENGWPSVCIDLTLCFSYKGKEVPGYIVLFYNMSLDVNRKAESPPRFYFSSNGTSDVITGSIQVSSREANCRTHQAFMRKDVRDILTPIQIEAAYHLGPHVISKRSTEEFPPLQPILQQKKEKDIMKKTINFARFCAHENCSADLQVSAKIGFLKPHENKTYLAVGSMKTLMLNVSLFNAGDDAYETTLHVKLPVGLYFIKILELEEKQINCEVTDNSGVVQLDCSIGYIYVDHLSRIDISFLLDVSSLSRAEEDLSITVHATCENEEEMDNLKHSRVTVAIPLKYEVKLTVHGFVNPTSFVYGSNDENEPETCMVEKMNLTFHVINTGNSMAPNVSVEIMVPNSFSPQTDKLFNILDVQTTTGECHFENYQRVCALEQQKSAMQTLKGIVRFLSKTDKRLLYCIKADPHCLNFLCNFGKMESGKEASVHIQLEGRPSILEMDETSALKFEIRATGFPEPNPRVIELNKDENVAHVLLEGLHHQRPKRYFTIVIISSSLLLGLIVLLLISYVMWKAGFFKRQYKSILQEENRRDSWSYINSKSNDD
T1 sequence (P05556 21-798, chain 2 of 2): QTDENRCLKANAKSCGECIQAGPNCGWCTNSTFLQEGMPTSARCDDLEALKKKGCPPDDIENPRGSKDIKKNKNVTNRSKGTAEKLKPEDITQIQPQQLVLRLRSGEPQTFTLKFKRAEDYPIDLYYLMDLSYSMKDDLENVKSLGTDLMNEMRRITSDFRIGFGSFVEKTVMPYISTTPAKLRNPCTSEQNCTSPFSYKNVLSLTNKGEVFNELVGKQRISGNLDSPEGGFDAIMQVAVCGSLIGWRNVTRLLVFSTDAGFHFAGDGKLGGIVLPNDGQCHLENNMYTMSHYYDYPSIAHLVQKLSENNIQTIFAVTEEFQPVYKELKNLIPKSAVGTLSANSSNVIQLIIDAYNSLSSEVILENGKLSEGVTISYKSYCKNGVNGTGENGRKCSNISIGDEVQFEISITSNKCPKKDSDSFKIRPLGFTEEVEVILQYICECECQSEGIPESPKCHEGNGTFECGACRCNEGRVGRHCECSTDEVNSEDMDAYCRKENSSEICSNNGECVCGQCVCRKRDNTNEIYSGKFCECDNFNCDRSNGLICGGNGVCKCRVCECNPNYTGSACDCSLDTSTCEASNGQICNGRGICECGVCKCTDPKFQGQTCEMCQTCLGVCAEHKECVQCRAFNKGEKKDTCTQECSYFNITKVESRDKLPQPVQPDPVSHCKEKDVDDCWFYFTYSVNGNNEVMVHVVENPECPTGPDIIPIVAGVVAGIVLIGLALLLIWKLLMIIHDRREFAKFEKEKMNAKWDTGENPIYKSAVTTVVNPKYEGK

IC50: 0.228 mg/L
B1: Stage 1 humanized anti-VLA-4 antibody with VK1 (DQL) light chain (antibody, V domains shown)
VH: QVQLQESGPGLVRPSQTLSLTCTVSGFNIKDTYMHWVRQPPGRGLEWIGRIDPASGDTKYDPKFQVRVTMLVDTSKNQFSLRLSSVTAADTAVYYCADGMWVSTGYALDFWGQGTTVTVSS
VL: DIQLTQSPSSLSASVGDRVTITCKASQSVTNDVAWYQQKPGKAPKLLIYYASNRYTGVPSRFSGSGSGTDFTFTISSLQPEDIATYYCQQDYSSPYTFGQGTKVEIKR
notes: Purified from YB2/0 cells; also called Stage 1 (Humanized heavy chain)
